# Data as given in patent publication US20240350596.
# Tested on: ghrelin (acylated; [3H]-ghrelin labeled on the octanoic acid moiety of the acylated Ser3)
row,Substance,Relative catalytic efficiency for ghrelin (Relative to CocH3) (fold relative to CocH3)
1,BChE mutant A199S/F227A/P285Q/S287G/A328W/Y332G,3
2,BChE mutant A199S/F227A/P285S/S287G/A328W/Y332G,2
3,BChE mutant A199S/S287G/A328W/Y332G,2
4,BChE mutant F398I,2
5,BChE mutant T284S/P285I/F398I,3
6,BChE mutant T284S/P285I/V288I,3
7,BChE mutant T284S/P285I/V288I/F398I,3
8,BChE-M02 (A199S/F227A/P285A/S287G/A328W/Y332G mutant of human BChE),3
9,CocH3 (A199S/F227A/S287G/A328W/Y332G mutant of human BChE),1
10,Wild-type human BChE,1.5
